From patent US20140161732A1 (published 2014)
Values belong to the binder of their own block, whether it stands above or below them. Bridge positions count the residues as written; N and C are the ends.

Target: KDR on human umbilical vein endothelial cells (HUVECs) (human, UniProt P35968 20-1356)
Experiment: cell-based or functional assay

KDR on human umbilical vein endothelial cells (HUVECs), sequence (P35968 20-1356): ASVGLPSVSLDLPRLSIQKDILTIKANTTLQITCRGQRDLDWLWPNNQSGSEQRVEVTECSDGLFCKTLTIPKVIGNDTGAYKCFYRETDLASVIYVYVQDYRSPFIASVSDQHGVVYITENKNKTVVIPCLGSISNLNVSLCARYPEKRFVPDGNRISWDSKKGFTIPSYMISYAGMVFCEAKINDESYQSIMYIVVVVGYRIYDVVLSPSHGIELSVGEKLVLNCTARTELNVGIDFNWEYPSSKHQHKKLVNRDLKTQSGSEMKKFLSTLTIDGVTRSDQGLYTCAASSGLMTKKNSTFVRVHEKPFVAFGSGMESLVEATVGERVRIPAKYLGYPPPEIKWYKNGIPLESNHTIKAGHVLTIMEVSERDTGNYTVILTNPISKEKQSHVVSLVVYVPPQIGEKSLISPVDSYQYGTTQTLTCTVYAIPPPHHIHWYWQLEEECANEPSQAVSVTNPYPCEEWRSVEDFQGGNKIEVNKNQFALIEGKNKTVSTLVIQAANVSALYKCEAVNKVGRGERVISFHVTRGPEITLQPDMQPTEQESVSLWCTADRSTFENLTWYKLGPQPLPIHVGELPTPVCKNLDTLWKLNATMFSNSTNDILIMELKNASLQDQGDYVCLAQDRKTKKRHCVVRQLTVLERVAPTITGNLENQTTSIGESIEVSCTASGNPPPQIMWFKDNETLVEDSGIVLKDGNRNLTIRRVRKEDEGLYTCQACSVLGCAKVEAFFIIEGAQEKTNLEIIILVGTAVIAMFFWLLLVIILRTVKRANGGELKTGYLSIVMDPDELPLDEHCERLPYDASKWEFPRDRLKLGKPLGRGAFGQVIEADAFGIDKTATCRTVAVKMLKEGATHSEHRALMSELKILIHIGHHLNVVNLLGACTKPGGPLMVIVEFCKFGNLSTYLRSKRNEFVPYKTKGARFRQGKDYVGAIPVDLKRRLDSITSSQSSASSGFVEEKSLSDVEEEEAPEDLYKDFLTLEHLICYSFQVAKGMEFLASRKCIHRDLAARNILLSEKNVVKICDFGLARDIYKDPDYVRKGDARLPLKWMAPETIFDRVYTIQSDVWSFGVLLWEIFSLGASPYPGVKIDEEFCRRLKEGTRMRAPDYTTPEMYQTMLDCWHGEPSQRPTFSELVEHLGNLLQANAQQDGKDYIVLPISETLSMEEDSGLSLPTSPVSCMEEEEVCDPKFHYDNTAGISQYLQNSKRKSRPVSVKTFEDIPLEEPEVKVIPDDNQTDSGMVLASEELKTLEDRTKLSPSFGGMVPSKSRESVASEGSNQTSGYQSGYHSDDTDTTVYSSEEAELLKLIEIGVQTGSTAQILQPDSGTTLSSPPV

VEGF-induced KDR phosphorylation in HUVECs (immunoblot): ≥ 50 % inhibition at 10 µM
B1: SEQ ID NO:269 (peptide)
peptide: Ac-AGWIECYHPDGICYHFGTGGGK-NH2
modifications: disulfide 6-13 (inferred); also: fluorescein on C-terminal Lys in anisotropy assay only

VEGF-induced KDR phosphorylation in HUVECs (immunoblot): ≥ 50 % inhibition at 10 µM
B2: SEQ ID NO:294 (peptide)
peptide: Ac-GDSRVCWEDSWGGEVCFRYDPGGGK-NH2
modifications: disulfide 6-16 (inferred); also: fluorescein on C-terminal Lys in anisotropy assay only
